Values of other authors as cited in paper PMC8757841.

Biological target: Transferrin receptor (Rattus norvegicus) (UniProt Q99376)
Sequence of UniProt Q99376 (Q99376 whole entry): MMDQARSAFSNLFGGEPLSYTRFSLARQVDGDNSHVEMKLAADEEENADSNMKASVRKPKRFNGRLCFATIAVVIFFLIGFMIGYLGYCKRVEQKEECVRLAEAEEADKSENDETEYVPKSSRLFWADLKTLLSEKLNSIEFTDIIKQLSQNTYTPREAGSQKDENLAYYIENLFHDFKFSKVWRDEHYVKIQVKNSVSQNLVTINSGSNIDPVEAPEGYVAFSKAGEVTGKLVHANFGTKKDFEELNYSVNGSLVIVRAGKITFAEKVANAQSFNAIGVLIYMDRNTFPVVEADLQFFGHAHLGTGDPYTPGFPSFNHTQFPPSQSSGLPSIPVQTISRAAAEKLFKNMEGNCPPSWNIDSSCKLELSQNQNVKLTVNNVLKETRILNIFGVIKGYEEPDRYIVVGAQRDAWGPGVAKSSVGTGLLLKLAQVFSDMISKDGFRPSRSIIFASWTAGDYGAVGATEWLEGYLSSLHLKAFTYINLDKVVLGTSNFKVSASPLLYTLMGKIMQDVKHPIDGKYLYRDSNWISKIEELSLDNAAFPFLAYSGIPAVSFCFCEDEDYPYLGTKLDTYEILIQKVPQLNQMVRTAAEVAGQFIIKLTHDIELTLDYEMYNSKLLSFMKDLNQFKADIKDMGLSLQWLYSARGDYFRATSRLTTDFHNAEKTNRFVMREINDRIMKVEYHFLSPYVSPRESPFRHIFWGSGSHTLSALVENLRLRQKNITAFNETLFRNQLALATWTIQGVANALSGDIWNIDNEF

Sequence of Transferrin (P12346 20-698): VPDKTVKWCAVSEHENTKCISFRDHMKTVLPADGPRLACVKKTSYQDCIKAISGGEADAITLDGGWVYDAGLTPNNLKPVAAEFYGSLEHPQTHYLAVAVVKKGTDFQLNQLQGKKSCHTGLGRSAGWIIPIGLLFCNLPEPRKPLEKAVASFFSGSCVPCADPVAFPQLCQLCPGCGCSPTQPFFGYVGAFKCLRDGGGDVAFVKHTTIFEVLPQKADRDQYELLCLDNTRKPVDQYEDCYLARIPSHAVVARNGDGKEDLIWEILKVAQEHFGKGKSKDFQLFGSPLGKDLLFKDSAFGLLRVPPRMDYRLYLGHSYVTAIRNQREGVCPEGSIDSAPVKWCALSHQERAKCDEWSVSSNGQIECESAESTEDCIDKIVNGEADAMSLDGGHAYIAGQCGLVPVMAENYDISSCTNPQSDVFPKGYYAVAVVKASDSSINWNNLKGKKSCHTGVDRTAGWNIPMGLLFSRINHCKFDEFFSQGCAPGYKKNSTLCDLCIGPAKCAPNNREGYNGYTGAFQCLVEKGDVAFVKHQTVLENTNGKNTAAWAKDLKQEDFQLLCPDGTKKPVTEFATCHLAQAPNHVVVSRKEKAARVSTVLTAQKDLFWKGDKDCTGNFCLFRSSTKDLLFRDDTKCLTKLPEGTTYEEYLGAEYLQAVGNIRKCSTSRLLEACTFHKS

Kd: 5 nM
Substance: Transferrin (from UniProt P12346)
